# Data as given in article PMC11997328, “Structural and functional characterization of the extended-diKH domain from the antiviral endoribonuclease KHNYN”.
# How the values were obtained:
# ZAP RBD [1] = biological target: T1, ZAP RBD (human, UniProt Q7Z2W4 1-227); experiment: BLI; BLI: 20 mM Tris pH 8.0, 50 mM NaCl, 0.5 mM TCEP, 0.01% Tween 20, 8 U/ml RNasin Plus, 25 °C; EMSA: 20 mM Tris pH 8.0, 50 mM NaCl, 0.5 mM TCEP, 5% glycerol, room; conditions: protein: recombinant; tags: N-terminal StrepII tag removed by HRV 3C protease; label: 5'-biotin
# T1 sequence (Q7Z2W4 1-227): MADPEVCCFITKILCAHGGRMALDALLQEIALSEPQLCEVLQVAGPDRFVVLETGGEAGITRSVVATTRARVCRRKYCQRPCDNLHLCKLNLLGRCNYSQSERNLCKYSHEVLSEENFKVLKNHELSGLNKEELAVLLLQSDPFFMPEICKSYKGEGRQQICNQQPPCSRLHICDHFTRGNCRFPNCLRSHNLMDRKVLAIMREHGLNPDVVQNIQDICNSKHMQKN
# KHNYN ex-diKH [2] = biological target: T2, KHNYN ex-diKH (human, UniProt O15037 8-200); experiment: BLI; up to 100 uM protein; BLI: 20 mM Tris pH 8.0, 50 mM NaCl, 0.5 mM TCEP, 0.01% Tween 20, 8 U/ml RNasin Plus, 25 °C; EMSA: 20 mM Tris pH 8.0, 50 mM NaCl, 0.5 mM TCEP, 5% glycerol, room; conditions: protein: recombinant; tags: N-terminal StrepII tag removed by HRV 3C protease; label: 5'-biotin
# T2 sequence (O15037 8-200): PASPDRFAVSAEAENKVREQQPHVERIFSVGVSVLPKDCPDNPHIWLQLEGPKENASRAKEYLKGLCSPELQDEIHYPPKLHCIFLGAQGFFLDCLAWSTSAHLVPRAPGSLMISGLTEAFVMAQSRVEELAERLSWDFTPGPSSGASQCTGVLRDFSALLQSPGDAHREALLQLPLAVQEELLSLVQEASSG
# ZAP RBD [3] = biological target: T1, ZAP RBD; experiment: EMSA; 2 uM protein, 0.2 uM RNA; BLI: 20 mM Tris pH 8.0, 50 mM NaCl, 0.5 mM TCEP, 0.01% Tween 20, 8 U/ml RNasin Plus, 25 °C; EMSA: 20 mM Tris pH 8.0, 50 mM NaCl, 0.5 mM TCEP, 5% glycerol, room; conditions: protein: recombinant; tags: N-terminal StrepII tag removed by HRV 3C protease; label: 5'-FAM
# KHNYN ex-diKH [4] = biological target: T2, KHNYN ex-diKH; experiment: EMSA; 20 uM protein, 0.2 uM RNA; BLI: 20 mM Tris pH 8.0, 50 mM NaCl, 0.5 mM TCEP, 0.01% Tween 20, 8 U/ml RNasin Plus, 25 °C; EMSA: 20 mM Tris pH 8.0, 50 mM NaCl, 0.5 mM TCEP, 5% glycerol, room; conditions: protein: recombinant; tags: N-terminal StrepII tag removed by HRV 3C protease; label: 5'-FAM
# IMP1(KH1-KH2) = IMP1(KH1-KH2) (UniProt Q9NZI8 194-369); experiment: BLI; low uM affinity; value not in material; BLI: 20 mM Tris pH 8.0, 50 mM NaCl, 0.5 mM TCEP, 0.01% Tween 20, 8 U/ml RNasin Plus, 25 °C; EMSA: 20 mM Tris pH 8.0, 50 mM NaCl, 0.5 mM TCEP, 5% glycerol, room; conditions: protein: recombinant; label: 5'-biotin
# Chain of IMP1(KH1-KH2) (Q9NZI8 194-369): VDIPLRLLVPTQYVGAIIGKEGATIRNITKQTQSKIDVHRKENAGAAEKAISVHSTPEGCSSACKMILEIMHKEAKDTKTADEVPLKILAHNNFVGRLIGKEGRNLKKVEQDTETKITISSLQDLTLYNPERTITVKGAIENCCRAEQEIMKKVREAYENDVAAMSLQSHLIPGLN
Binder,binding result (KHNYN ex-diKH [2]),binding result (KHNYN ex-diKH [4]),also measured
UAAUCGU (ssRNA) [CpG RNA (Bi-UAAUCGU)],no binding,,Kd (ZAP RBD [1]): 30 nM
UUCAGGU (ssRNA) [non-CpG RNA (Bi-UUCAGGU)],no binding,,Kd (ZAP RBD [1]): 740 nM
GCAACGACGACGCUAUUUUGCGCAUCAGACGCG (ssRNA) [CpG-rich 33mer],,no binding,binding result (ZAP RBD [3]): binds
AUAACAAAUACACUAAAAUACAAAUCAGAAAAU (ssRNA) [A-rich 33mer],,no binding,
UUCUGUU (ssRNA) [CUG RNA (Bi-UUCUGUU)],no binding,,binding result (IMP1(KH1-KH2)): binds
GUAACUAAUACUCUAUUUUGUUAAUCAGAUAAU (ssRNA) [AU-rich 33mer],,no binding,
GUUUCUUUUACUCUUUGUUACUUUUCAGUUAAU (ssRNA) [U-rich 33mer],,no binding,
GCAACCACCACUCUAUUUUGUGCAUCAGAUGCU (ssRNA) [CpG-depleted 33mer],,no binding,
CUCCUCCCUACACUCCCCUCUCCCGCCGCCCCU (ssRNA) [C-rich 33mer],,no binding,
